Test results taken from patent US20240279325A1 (Chugai, published 2024).
Changes are numbered by the printed parent chain. Names and notes keep the numbering of the source.

Experiments:
[1] = target: T1, human FcγRIIb extracellular domain with C-terminal His tag (human, UniProt P31994 43-217); assay: SPR (Biacore); parent is IL6R-B3/IL6R-L
T1 construct: extracellular domain; not shown: His tag at the C terminus
T1 sequence (looked up): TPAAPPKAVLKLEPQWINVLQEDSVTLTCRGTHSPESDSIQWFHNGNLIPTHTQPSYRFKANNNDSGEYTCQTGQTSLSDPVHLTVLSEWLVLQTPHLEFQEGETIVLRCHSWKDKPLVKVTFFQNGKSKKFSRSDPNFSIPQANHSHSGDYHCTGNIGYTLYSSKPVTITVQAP

[2] = target: T1, human FcγRIIb extracellular domain with …; assay: ratio of SPR KDs, FcγRIIaH over FcγRIIb
[3] = target: T1, human FcγRIIb extracellular domain with …; assay: ratio of SPR KDs, FcγRIIaR over FcγRIIb
[4] = target: T2, human FcγRIa extracellular domain with C-terminal His tag (human, UniProt P12314 16-292); assay: SPR (Biacore), antibody captured, FcγR analyte
T2 construct: not shown: His tag at the C terminus
T2 sequence (P12314 16-292): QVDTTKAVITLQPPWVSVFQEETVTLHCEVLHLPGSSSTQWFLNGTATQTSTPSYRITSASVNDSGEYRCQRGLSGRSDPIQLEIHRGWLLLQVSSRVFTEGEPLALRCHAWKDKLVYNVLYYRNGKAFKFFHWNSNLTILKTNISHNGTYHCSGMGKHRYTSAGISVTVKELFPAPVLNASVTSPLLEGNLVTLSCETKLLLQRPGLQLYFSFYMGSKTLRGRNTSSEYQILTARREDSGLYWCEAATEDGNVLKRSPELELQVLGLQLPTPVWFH

[5] = target: T3, human FcγRIIa type H (allotype H131) extracellular domain with C-terminal His tag (human, UniProt P12318 34-217); assay: SPR (Biacore), antibody captured, FcγR analyte
T3 construct: extracellular domain; also called FcγRIIaH; not shown: His tag at the C terminus
T3 sequence (looked up): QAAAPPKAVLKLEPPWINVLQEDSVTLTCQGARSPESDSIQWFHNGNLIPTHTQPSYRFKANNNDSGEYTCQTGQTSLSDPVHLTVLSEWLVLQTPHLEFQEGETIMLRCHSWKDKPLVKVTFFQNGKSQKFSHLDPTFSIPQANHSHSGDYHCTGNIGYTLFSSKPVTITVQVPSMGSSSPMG

[6] = target: T1, human FcγRIIb extracellular domain with …; assay: SPR (Biacore), antibody captured, FcγR analyte
human FcγRIIb = target: T4, human FcγRIIb (human, UniProt P31994 43-217); assay: SPR (Biacore), amount bound against IL6R-F652/IL6R-L x 100
T4 sequence: T1 sequence (looked up)
Source text: (§1) These variants were expressed and purified by the method of Reference Example 1. These Fc variants are called PD variants. Interactions of each PD variant with FcγRIIa type R (allotype R131) and FcγRIIb were comprehensively evaluated by the method of Reference Example 2.

[7] = target: T5, human FcγRIIa type R (allotype R131) (human, UniProt P12318 36-217); assay: as above
T5 construct: also called FcγRIIaR; R-type FcγRIIa
T5 chain: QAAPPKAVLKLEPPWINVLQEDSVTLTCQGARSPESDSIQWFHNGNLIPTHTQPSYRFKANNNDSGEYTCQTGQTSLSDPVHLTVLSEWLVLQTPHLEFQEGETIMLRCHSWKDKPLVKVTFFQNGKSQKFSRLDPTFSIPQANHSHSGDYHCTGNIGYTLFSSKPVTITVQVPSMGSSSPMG
Source text: as §1

[8] = target: T6, FcγRIa extracellular domain, C-terminal His tag (human, UniProt P12314 16-292); assay: SPR (Biacore), antibody captured on chip, FcγR extracellular domain as analyte, 25 C
T6 construct: extracellular domain; not shown: His tag at the C terminus
T6 sequence (P12314 16-292): as the sequence (P12314 16-292) above

[9] = target: T7, FcγRIIb extracellular domain with C-terminal His tag (human, UniProt P31994 43-217); assay: SPR; KD for FcγRIIaH divided by KD for FcγRIIb
T7 construct: extracellular domain
T7 sequence (looked up): T1 sequence (looked up)

[10] = target: T7, FcγRIIb extracellular domain with …; assay: SPR; KD for FcγRIIaR divided by KD for FcγRIIb
[11] = target: T8, FcγRIIa type H (allotype H131) extracellular domain with C-terminal His tag (human, UniProt P12318 34-217); assay: SPR (Biacore), antibody captured, FcγR as analyte
T8 construct: extracellular domain; also called FcγRIIaH; FcγRIIa H type
T8 sequence (looked up): T3 sequence (looked up)

[12] = target: T7, FcγRIIb extracellular domain with …; assay: SPR (Biacore), antibody captured, FcγR as analyte
[13] = target: T9, FcγRIIa type R (allotype R131) extracellular domain with C-terminal His tag (human, UniProt P12318 34-217); assay: SPR; KD of IL6R-B3/IL6R-L divided by KD of the variant
T9 construct: extracellular domain; also called FcγRIIaR; FcγRIIa R type
T9 sequence (looked up): T3 sequence (looked up) with H134R

[14] = target: T7, FcγRIIb extracellular domain with …; assay: as above
[15] = target: T10, human FcγRIIa type R (allotype R131) extracellular domain with C-terminal His tag (human, UniProt P12318 34-217); assay: SPR (Biacore), antibody captured, FcγR analyte
T10 construct: also called FcγRIIaR
T10 chain: T5 chain

[16] = target: T11, human FcγRIIIa type V (allotype V158) extracellular domain with C-terminal His tag (human, UniProt P08637 17-208); assay: SPR (Biacore), antibody captured, FcγR analyte
T11 construct: also called FcγRIIIaV
T11 sequence (P08637 other isoform, or with tags, fused parts or gaps): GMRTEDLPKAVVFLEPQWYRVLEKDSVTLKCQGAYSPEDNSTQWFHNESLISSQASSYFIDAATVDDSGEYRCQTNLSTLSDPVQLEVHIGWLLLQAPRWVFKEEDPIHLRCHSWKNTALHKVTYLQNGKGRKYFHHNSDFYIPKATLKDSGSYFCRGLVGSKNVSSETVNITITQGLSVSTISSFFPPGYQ

[17] = target: T12, human FcγRIIa type R (allotype R131) extracellular domain with C-terminal His tag (human, UniProt P12318 34-217); assay: SPR (Biacore), captured antibody, FcγR analyte
T12 construct: also called FcγRIIaR
T12 chain: T5 chain

[18] = target: T13, human FcγRIa extracellular domain with C-terminal His tag (human, UniProt P12314 16-292); assay: SPR (Biacore), captured antibody, FcγR analyte
T13 construct: extracellular domain; also called FrgRIa
T13 sequence (P12314 16-292): as the sequence (P12314 16-292) above

[19] = target: T14, human FcγRIIa type R (allotype R131) extracellular domain with C-terminal His tag (human, UniProt P12318 34-217); assay: SPR (Biacore), captured antibody, FcγR analyte
T14 construct: extracellular domain; also called FcγRIIaR; FrgRIIaR
T14 sequence (looked up): T3 sequence (looked up) with H134R

[20] = target: T15, human FcγRIIa type H (allotype H131) extracellular domain with C-terminal His tag (human, UniProt P12318 34-217); assay: SPR (Biacore), captured antibody, FcγR analyte
T15 construct: extracellular domain; also called FcγRIIaH; FrgRIIaH
T15 sequence (looked up): T3 sequence (looked up)

[21] = target: T16, human FcγRIIb extracellular domain with C-terminal His tag (human, UniProt P31994 43-217); assay: SPR (Biacore), captured antibody, FcγR analyte
T16 construct: extracellular domain; also called FrgRIIb
T16 sequence (looked up): T1 sequence (looked up)

[22] = target: T17, human FcγRIIIa type V (allotype V158) extracellular domain with C-terminal His tag (human, UniProt P08637 17-208); assay: SPR (Biacore), captured antibody, FcγR analyte
T17 construct: extracellular domain; also called FcγRIIIaV; FrgRIIIaV
T17 sequence (P08637 17-208 F176V): as the sequence (P08637 other isoform, or with tags, fused parts or gaps) above, with S179A counted along it

[23] = target: T18, human FcγRIIa type H (allotype H131) extracellular domain with C-terminal His tag (human, UniProt P12318 34-217); assay: SPR (Biacore), captured antibody, FcγR analyte
T18 construct: also called FcγRIIaH
T18 sequence: T5 chain with R133H

[24] = target: T19, human FcγRIIIa type V (allotype V158) extracellular domain with C-terminal His tag (human, UniProt P08637 17-208); assay: SPR (Biacore), captured antibody, FcγR analyte
T19 construct: also called FcγRIIIaV; FcγRIIIa V type
T19 sequence (P08637 other isoform, or with tags, fused parts or gaps): as the sequence (P08637 other isoform, or with tags, fused parts or gaps) above

B1: IL6R-BP195/IL6R-L (antibody, human IgG1, kappa, name in EU numbering)
heavy: QVQLQESGPGLVKPSETLSLTCAVSGHSISHDHAWSWVRQPPGEGLEWIGFISYSGITNYNPSLQGRVTISRDNSKNTLYLQMNSLRAEDTAVYYCARSLARTTAMDYWGEGTLVTVSSASTKGPSVFPLAPSSKSTSGGTAALGCLVKDYFPEPVTVSWNSGALTSGVHTFPAVLQSSGLYSLSSVVTVPSSSLGTQTYICNVNHKPSNTKVDKKVEPKSCDKTHTCPPCPAPDYLGDDSVFLFPPKPKDTLMISRTPEVTCVVVDVSDEDGEVKFNWYVDGVEVHNAKTKPREEQDNSTYRVVSVLTVLHQDWLNGKEYKCKVSNAALPKPIEKTISKAKGQPREPQVYTLPPSRDELTKNQVSLTCLVKGFYPSDIAVEWESNGQPENNYKTTPPVLDSDGSFFLYSKLTVDKSRWQQGNVFSCSVMHEALHNHYTQESLSLSP
light: not shown
notes: EU numbering; copies: 2 + 2
KD(IIb) of the parent polypeptide/KD(IIb) of altered polypeptide [1]: 62.3 fold | KD(IIaH)/KD(IIb) [2]: 201 | KD(IIaR)/KD(IIb) [3]: 18.2 | Kd [4]: 0.026 µM

B2: IL6R-BP198/IL6R-L (antibody, human IgG1, kappa, name in EU numbering)
heavy: B1 heavy with D239G, D298Y
light: not shown
notes: EU numbering; copies: 2 + 2
KD(IIb) of the parent polypeptide/KD(IIb) of altered polypeptide [1]: 15.7 fold | KD(IIaH)/KD(IIb) [2]: 102 | KD(IIaR)/KD(IIb) [3]: 11

B3: IL6R-BP202/IL6R-L (antibody, human IgG1, kappa, name in EU numbering)
heavy: B1 heavy with D235E, Y236L, D270H, D298Y, K332R
light: not shown
notes: EU numbering; copies: 2 + 2
Kd [5]: 92 µM | Kd [6]: 0.054 µM

B4: IL6R-F652/IL6R-L (antibody, human IgG1, kappa)
heavy: QVQLQESGPGLVKPSETLSLTCAVSGHSISHDHAWSWVRQPPGEGLEWIGFISYSGITNYNPSLQGRVTISRDNSKNTLYLQMNSLRAEDTAVYYCARSLARTTAMDYWGEGTLVTVSSASTKGPSVFPLAPSSKSTSGGTAALGCLVKDYFPEPVTVSWNSGALTSGVHTFPAVLQSSGLYSLSSVVTVPSSSLGTQTYICNVNHKPSNTKVDKKVEPKSCDKTHTCPPCPAPELLGGDSVFLFPPKPKDTLYISRTPEVTCVVVDVSHEDPEVKFNWYVDGVEVHNAKTKPREEQYNSTYRVVSVLTVLHQDWLNGKEYKCKVSNKALPAPIEKTISKAKGQPREPQVYTLPPSRDELTKNQVSLTCLVKGFYPSDIAVEWESNGQPENNYKTTPPVLDSDGSFFLYSKLTVDKSRWQQGNVFSCSVMHEALHYHYTQKSLSLSP
light: not shown
notes: copies: 2 + 2
relative binding activity (human FcγRIIb): 100 IL6R-F652/IL6R-L = 100 | relative binding activity [7]: 100 IL6R-F652/IL6R-L = 100

B5: IL6R-BP182/IL6R-L (antibody, human IgG1, kappa, name in EU numbering)
heavy: B1 heavy with Y236L, D239G, D270H, A328K
light: not shown
notes: copies: 2 + 2
Kd [8]: 0.02 µM

B6: IL6R-BP494/IL6R-L (antibody, human IgG1, kappa, name in EU numbering)
heavy: B1 heavy with D235E, Y236L, S269A, D270E, A328K, K332R
light: not shown
notes: copies: 2 + 2
KD(IIaH)/KD(IIb) [9]: 821 | KD(IIaR)/KD(IIb) [10]: 38.6 | Kd [11]: 54 µM | Kd [12]: 0.0065 µM | KD(IIaR) OF PARENT POLYPEPTIDE/KD(IIaR) OF ALTERED POLYPEPTIDE [13]: 4.3 | KD(IIb) OF PARENT POLYPEPTIDE/KD(IIb) OF ALTERED POLYPEPTIDE [14]: 471

B7: IL6R-BP112/IL6R-L (antibody, human IgG1, kappa, name in EU numbering)
heavy: B4 heavy with Y254M, P273G, Y436N, K441E
light: not shown
notes: Alterations introduced into IL6R-B3; also called P238D/P271G; copies: 2 + 2
Kd [15]: 3.5 µM | Kd [16]: 69 µM

B8: IL6R-BP514/IL6R-L (antibody, human IgG1, kappa, name in EU numbering)
heavy: B1 heavy with Y236L, D270E, E274F, D298Y, A328K, K332A
light: not shown
notes: copies: 2 + 2
Kd [17]: 3 µM

B9: IL6R-BP198/IL6R-L (antibody, human IgG1, kappa, name in EU numbering)
heavy: B1 heavy with D239G, D298Y
light: not shown
notes: Alterations introduced into IL6R-B3, EU numbering; copies: 2 + 2
relative binding activity [18]: 104 % of IL6R-BF648/IL6R-L binding | relative binding activity [19]: 449 % of IL6R-BF648/IL6R-L binding | relative binding activity [20]: 188 % of IL6R-BF648/IL6R-L binding | relative binding activity [21]: 164 % of IL6R-BF648/IL6R-L binding | relative binding activity [22]: 157 % of IL6R-BF648/IL6R-L binding

B10: IL6R-BP470/IL6R-L (antibody, human IgG1, kappa, name in EU numbering)
heavy: B1 heavy with Y236L, A328K, K332R, E335T
light: not shown
notes: copies: 2 + 2
Kd [23]: 10 µM

B11: IL6R-BP462/IL6R-L (antibody, human IgG1, kappa, name in EU numbering)
heavy: B1 heavy with Y236L, S269A, D270E, D298Y, A328K, K332R, P398V
light: not shown
notes: copies: 2 + 2
Kd [24]: 9 µM
